Experimental data taken from the DeepSol protein solubility set.

Assay: soluble on expression in E. coli; label from the status in PepcDB or PDB records

Sequence	soluble on expression in E. coli
MGSDKIHHHHHHMILKHRRPNIYGLMNKEGNKEEVEMIINELLNRDYKITFLPSGSSAVFLSMWIAKIYSNEISIPDMGGWQGFLKFPKLLNLKNNMIETNLGIIDLEKLDESLKENSSLILTSLAGYLAPQPLKEIKKLCEEREVLFIEDISGKIGGDCGYGDIVVCSTGTPKILNCEYGGFLGISKEIEEKLGNALNDIKILSKTYKTINYFGLLKEELLNAKKTYKKYVEASKIIKDEIENAYFREFEGISVFIECDNPKNISKKINSLIKLDNRKSITTICPNYDRILKNGIVFETKKIDISELNREVINEIIIALSSIL	not soluble
MGSDKIHHHHHHMAGSLIERTLRVLETLSSEPDGIPLQRLAERLEIPKSAAHRICNELGRQGYVRQETRTGHYRLSTRLIALGFRYLGSTGASDVLQPILDRLADETGELVRLGVIEGDRQTWIAKAQGTRTGLRYDPDMGREAPLRYTASGQAWLASLDDQAALALLERQGHHNPEHFGPNAPRTDYELLDRLALARERGYTCCVDSSALGTSAFGAVIRHPMQGHTIGVISVAGPSVRLTEDRMHELAPKLLQAVEELSQCSQASQLFSE	not soluble
MGHHHHHHSHMEFRSVAERICGDIVLSENSGEALRKWRSIFNASQSDLARKLGISPSVISDYESGRRKPGTAFLKKFVCALIELDGERGYQVLSKYRYFLESDHKAVLDIAEYQKTAEPSEFCEVIEGKMLTHFDKAIHGHTVIDSINAILSLNAFDFYRLYGLTSERALIFTRVSTGRSPMVAVRVSNLKPSAVVLHGLEAERVDEMAKKIAEIERIPLVVTEIAIGEIVKRLRRKFA	not soluble
MERTVVETRYGRLRGEMNEGVFVWKGIPYAKAPVGERRFLPPEPPDAWDGVREATSFGPVVMQPSDPIFSGLLGRMSEAPSEDGLYLNIWSPAADGKKRPVLFWIHGGAFLFGSGSSPWYDGTAFAKHGDVVVVTINYRMNVFGFLHLGDSFGEAYAQAGNLGILDQVAALRWVKENIAAFGGDPDNITIFGESAGAASVGVLLSLPEASGLFRRAMLQSGSGSLLLRSPETAMAMTERILDKAGIRPGDRERLLSIPAEELLRAALSLGPGVMYGPVVDGRVLRRHPIEALRYGAASGIPILIGVTKDEYNLFTLTDPSWTKLGEKELLDRINREVGPVPEEAIRYYKETAEPSAPTWQTWLRIMTYRVFVEGMLRTADAQAAQGADVYMYRFDYETPVFGGQLKAAHALELPFVFHNLHQPGVANFVGNRPEREAIANEMHYAWLSFARTGDPNGAHLPEAWPAYTNERKAAFVFSAASHVEDDPFGRERAAWQGR	soluble
MRRKMIMKIIQITDTHLLPPGIAINGVDPENQLRAAVADIVEKHADADLLVMTGDLCNYGEPEAYELLRDILAPVSIPTRLMLGNHDRRPEFVAAFPEQPRDDNGYIQSFIDTEFGRLLFLDSHEADVIGGIYGADRLTWLENALESAGDLPITVFVHHPPMDCGIRHFEHIGMHDDGAIMRRLAAHPAGIRHIVFGHIHVPMAGTTAEGIAYSSGQACAHRFITDIDVVDPLWTGGNPCYRVISLGAFGLRAYDAEVGQPVLGQTPVCEGP	not soluble
FTQMVIRLHIYHLVSTVSPHNVNIDASIAARGLSGEGYRGHYFWDEIYIMPFFIQHLPEVARALLMFRYHRLDAAREYARDNGYHGAMYPWQTADDGREETPTIHYNPKSGAWDPDLSCRQRHVSIAVFYNAWRYVHDTGDTEFLNSYGAEMMFEIARFWASIATFSPDDGRYHIEGVMGPDEFHEELPGSGKPGLKDNSYTNIMTAWLLEKAIEISQRLDPAVMDGLMEKIGIGHDEFMKWRDISGKMNVLIDQNGILEQFDGYMGLKELDWEHYKLKYGNIHRMDRILKAENDSPDHYKVAKQADVLMTFYTLSPAEVCAILENLGYHVADPLRFVRDNYAFYEPRTSHGSTLSKVVHSIISSYLPNGHEMAWNWFIEALRSDIHDTQGGTTPEGLHCGVMAGTIDTVT	not soluble
MGSDKIHHHHHHMEVKPFRPLIYRKEIDGMIAPPFDAITPKEEVELKRNKYNITYLTLPKGRDGIPHAKMLLQSWLENGVLIPMKEDVFIVLRQRFYVGDECINRYGLIAKVKVFPESGDVIPHERTFDMYVKERETLMDGISSQLEPIFLVTLKNDLPGYLKAITDGLKEDNTYFGPENVENFVYYINDKRKINKIISLLAEDKSIVADGHHRLQATKNIAARKSGGEREFWSYAMAYITSIHDPGVLVGGVNRVVSNKFRLDMNVLSKYFEINQVERLDETNINLFNGRLYSLKIRIPVYDNLIDASNDFILSKSASMNYTDIENEVIYTHDIYELMSLVNSGSYSFGIILPRWDKMKLIETLLSGRKLPQKSTYFYPKIPSGLAIDTALELRLS	not soluble
MGSDKIHHHHHHMSGGDAMAKAVKQPAPDAEQIVLAIDIGGSHVKILTSAGGAERRDDSGPDLTPQQMIDKVKKLAEGLSYDVISMGYPGPVRHNKPVLDPKNLGKGWAGFDFAAQFGKPVKVVNDALMQAIGSYEGGRMLFLGLGTGLGAAMVFDNVGQPMELAHLPYRKGRSFEDYVGERGLEKRGKKKWRKYVFDVVTRLRAALQPDYVVIGGGNVDKLDALPAEARRGDNTRAFEGGFRLWRDKALIV	not soluble
GSPGISGGGGGIPSGRGELLVSLCYQSTTNTLTVVVLKARHLPKSDVSGLSDPYVKVNLYHAKKRISKKKTHVKKCTPNAVFNELFVFDIPCESLEEISVEFLVLDSERGSRNEVIGRLVLGATAEGSGGGHWKEICDFPRRQIAKWHMLCDG	soluble
MIFHDVVESDLHDWECDDDYVCKFCTVRVNNWKIEIYQLWHYFFFLKDVVGVIVRKLNIAIDRDYTCEGLHVAGLIGYDYDKVEEYTGMCTICKLGDCGGMCRRVVEHCKKCGPIQEGVFETPFEKPHHFESLEITSFTIDCLLYGNRFRPTLVNFKNAPITVDSLSINAPSSGIPKVFLSAMMISKWKLLILKTCEDSPYAMEELQLSLTGKMLEEMSNNDYKVKHFRKCFPTKKMSIKILSQIENIQDIRKLCIQEKNLDLAIDIICDKSLLLKFWVSQKNTRGSFWKMKML	not soluble
SLEIRRSDAPRLVDLVRRAQASVNRLATEREALTTRIDSVHGRSVDTALAAMQRRSAKLAGVAAMNPVHGPGLVVTLQDAQRDANGRFPRDASPDDLVVHQQDIEAVLNALWNAGAEAIQMQDQRIIAMSIARCVGNTLLLNGRTYSPPYTIAAIGDAAAMQAALAAAPLVTLYKQYVVRFGLGYCEEVHPDLQIVGYADPVRMHFAQPAGPLDY	soluble
SSSRGFNIKARGLCNNNNGGGGTGAKCGRWNPTVEQVKLLTDLFKAGLRTPSTDQIQKISMELSFYGKIESKNVFYWFQNHKARERQKCRKISTVKFDHRQDTDLSKPRRDNVRRHQLPAKG	soluble
DIECPTCGRPMGIRTASTGVFLGCSGYALPPKERCKTTINLGDEEGIINVLEEDVETAALRAKKRCPICETAMDAYLIDDKRKMHVCGNNPNCEGYVVEYGEFKVKGYDGPVVECDKCGSDMVLKNGRFGKYMDCTSETCKNTRKILK	not soluble
MEDLKHSDALVREQATKKLWRIWFQQKGMYGLEKIDQSQKLLDAGEITEAEVMLTQLIQEQPDFAEAWNRRAFLYYSMGEYQKSLADCQMVIQINPVHFGALHGIGLCYAALGKYAKAIKAFKRALEIQPYSLVNQKLILECTFRLSLEHHHHHH	soluble
MGSDKIHHHHHHMSRESALSRASRYFEAGDFQSDLAHLVTYRSESQNTAPEARMECRRYLEEAMLPRLRALGFDCEIIDNPDPTGGPLLIGERREGEALPTILTYGHGDAVLGQEGRWREGLEPWVLVEEGDRLYGRGTADNKGQHLINIAALEAVLAERGHLGFNTRIVIEMSEEVGSVGLPDVFRAYKDRLTADVLIASDGPRLQPDVPTMFMGSRGGTTFDLVVETHEGAHHSGNWGGLLSDPAMILAHALACITDVRGQIKVPEWRPDSLTENVRMALRDLPVAGGQGPAVNPDWGEEDLTPAERVFGWNSFTVLAMVSGVPEAPVNAISGWARATCQLRYVVGTDPEDVVPALRRHLDAHGFESVEIRCHERGFFAATRLDPDHPWAQFVGESIRRTSGALHVLPNLAGSLPNDSFTDILEVPTIWVPHSYRGCSQHAPNEHVLKSVYHDALRVMAGVFWDLGEQGGPLA	not soluble
MTLVGECLSPHVTMAQRDHIRLEWRMPYRVLERTRQVAWTCFCRASVYELCEGGGQAFLRRTVQLDGKPTAHETSPCSISEARVIWTALLSGRAR	not soluble
MGSDKIHHHHHHMSQIISVHSFRGGTGKSNMTANLATTLALQGKRIAIIDTDIQSPGIHVIFGLNEQKMNNCLNDYLWGKCAIEDAAYDVTHLLKGEGGSGKLYLIPSSINPGQITRILREGYDVARLNDGFYEIINALDLDYLLIDTHPGLNEETLLSIAISDILVVILRPDQQDFQGTAVTLEVARKLEVPKMMLVVNKVLSTFDFNALQQEVESTYKTPVAGIVPLSEDIIRLASSNIFCLLYTSHPFSQVVQKITAQIIREQAKVAVRGAF	not soluble
MANLCKRVVDLEKYIVKEAPPTVYYIPDFISEAEEEFLLQQVYRAPKPKWTQLSGRRLQNWGGLPNPKGMLAEKLPDWLLEYTEKISALGAFAGKTANHVLVNEYKPGEGIMPHEDGPLYHPTVTTITVGSHTLLDFYRPVCQAEPDAPQTEESRYMLSLLVQRKSLLILQDDMYKCYLHGIRGVCEDVLSEHVVNISSTGAQVGDTLPRSTRVSLTIRHVPKIIRANLFLGKK	not soluble
MTPDELARLTGYSRQTINKWVRKEGWTTSPKPGVQGGKARLVHVNEQVREYIRNAERPEGQGEAPALSGDAPLEVLLVTLAKEMTPVEQKQFTSLLLREGIIGLLQRLGIRDSK	not soluble
GNDIDYSVGGSVSDAVSEVTEYANAKKNDPYGSWYTGRKVGEIWGYRAEGLIQTQEEADAYNAEYDLSYISGKLWEPGDVKYIDLDGNKVIDRGDNRLVDGDMGDQTIIGNTTPRYQYTFNGYISWKGLSLSVMFQGVGKRDWVAGGAYFWGFGPYAQVTVFKEHMDYWRPDNPGAYYPKPYINSAGGVAPYQDKNIQRTDLYLQNAAYCRLKNLTLSYDLPNAWVHKAGLQKVQVFFSGENLLTFTKLKGMFDPEAIFSSNSYTSEGGKNYPMNRVLSLGFIVNL	not soluble
MGSDKIHHHHHHMTFEEFKDRLFALAKKNGVEVQISFLETREFSLRLANGDLDQYTDAGKFNVEIKVLKDGKTGTFRTQVLENPEKCFEEALSNLQVKDSEEKEYFFEGGKEYREMETYVGRFEKLSVKEKMDMAKKAHESAAKDERVVMVPTVMYKDMVIKKIITNTLGLDVESQMDGGFLFAMAIARDANPRSGSWYELARTPEDLNPEEIGKRAAEEAISLIGSKTIPSGKYPVLMRNTALLDLMEMFIPMISAENVQKNLSPLKGKLGEQVGNPAVSIKDLPYHPKGLSSTPFDDEGVPTTEKFVLENGVLKTFLHNLKTARKEGVEPTGNGFVGGIRPVNLMLMPGEKSFEELLKEMDRGVVITEVEGMHAGANSISGEFSLFAKGYWVENGEIAHGVEDITISGNFLDLLRKIVLVGNDVKVSQHTIAPSVLVEVLDVAGK	soluble
MSLRNDAYSTLRVSSEHGVARIILDNPPVNVIGATMMRELRTVLTTLADDSSVRVIVFSSADPEFFLAHVDMRIGEKMDALQELAASAPADVNVFQAVGELIRHQPQVTIVKLAGKARGGGAEFVAAADMAFAAAETAGLGQIEALMGIIPGGGGTQYLRGRVGRNRALEVVLTADLFDAETAASYGWINRALPADELDEYVDRVARNIAALPDGVIEAAKRSLPADDLKEGLLGENDAWAATFSLPAAQQLISGGLKDGAQTPAGERDLEGLMRSVAREGHHHHHH	soluble
